According to patent US20200347135A1 (published 2020):
Read-outs that look alike come from different tables or passages of the source.

Assays:
[1] = target: T1, human PD-1 expressed on cells (UniProt Q15116 25-288); assay: FACS ligand competition (PD-L1 Fc)
[2] = target: T1, human PD-1 expressed on cells; assay: FACS binding
[3] = target: T1, human PD-1 expressed on cells; assay: FACS competition with PD-L1 Fc
[4] = target: T1, human PD-1 expressed on cells; assay: FACS binding; remark: listed apart in the source
[5] = target: recombinant PD-1 extracellular domain (ECD) protein (UniProt Q15116 25-170); assay: SPR
[6] = target: T1, human PD-1 expressed on cells; assay: FACS binding; remark: listed apart in the source

T1 sequence (Q15116 25-288): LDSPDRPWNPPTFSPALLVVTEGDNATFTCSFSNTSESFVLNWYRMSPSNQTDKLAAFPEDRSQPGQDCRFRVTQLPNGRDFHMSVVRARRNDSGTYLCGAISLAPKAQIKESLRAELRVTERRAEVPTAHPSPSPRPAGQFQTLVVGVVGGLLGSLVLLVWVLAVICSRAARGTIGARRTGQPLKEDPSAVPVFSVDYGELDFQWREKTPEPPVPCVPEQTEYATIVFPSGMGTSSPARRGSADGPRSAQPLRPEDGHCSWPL
recombinant PD-1 extracellular domain (ECD) protein, sequence (Q15116 25-170): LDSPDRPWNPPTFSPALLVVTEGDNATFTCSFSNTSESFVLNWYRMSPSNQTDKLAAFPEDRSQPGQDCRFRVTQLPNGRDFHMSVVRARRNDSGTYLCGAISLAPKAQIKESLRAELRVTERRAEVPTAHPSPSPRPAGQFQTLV

| Binder | IC50 [1] [nM] | EC50 [2] [nM] | also measured |
| --- | --- | --- | --- |
| A31543 sdAb (VHH) VHH: QVQLVESGGGKVQPGGSLRLSCAASGGTLDYYAIGWFRQAPGKEREAVSCISSSDGSTYYADSVKGRFTISRDNAKNTVYLQMNSLKPGDTAVYHCATDRACGSSWLGAESWAQGTQVTVSS | – | – | IC50 [3]: 21.1 nM; EC50 [4]: 41.2 nM |
| AS25067_HCAb (antibody, V domains shown) VH: QVHLMESGGGAVQTGGSLRLSCAVSGISISPDCMGWFRQAPGKKREAVTTIFANTGSARYGDSVKGRFTSSQGNAKNTLYLQMDSVKLDDTGTYYCAARFTGGDCFDHQPLAWRFWGQGTQVTVSS | 3.51 | 4.96 | – |
| AS15892 sdAb (VHH) VHH: QIQLVESGGGSVQAGGSLRLSCAASGFTDSSYCGAWFRQVPGKEREGVAIIDRYGGTMYKDSVKGRFTISKDTAKNILYLQMNSLKLEDTAMYYCAAAEYRGSSCDAESGYWGQGTQVTVSS | – | – | Kd [5]: 2.67 nM |
| AS15881 sdAb (VHH) VHH: QVQLVESGGGSVQAGGSLRLSCAASGFTDSSYCGAWFRQVPGKEREGVAIIDRYGGTMYKDSVKGRFTISKDTAKNILYLQMNSLKLEDTAMYYCAAAEYRGSSCDAESGYWGQGTQVTVSS | – | – | Kd [5]: 2.31 nM |
| AS15883 sdAb (VHH) VHH: QVHLMESGGGSVQAGGSLTLSCAASVFTDSNYCMAWFRQVPGKEREGVAIIDRYGGTMYKDSVKGRFTISKDTAKNILYLQMNSLKLEDTAMYYCAAAGYRGSSCDADSGYWGQGTQVTVSS | – | – | Kd [5]: 2.78 nM |
| AS25037_HCAb (antibody, V domains shown) VH: EVQLAESGGGSVQAGGSLKLSCLASQWISSDCGMAWYRQAPGKERELVSRISSDDTTTYADSVKGRFTISQDSAKNTLYLQMNKLKTEDTGVYYCAAEAKSTITSLCYPLNYWGQGTQVTVSS | 6.58 | 6.62 | – |
| AS15872 sdAb (VHH) VHH: QVQLVESGGGLVQPGGSLTLSCAASGFTFSTAAMSWVRQVPEEGLEWVASIDSSGSRTYYAGSVKGRFTISRDNAKNTLYLQLNSLKAEDTAMYYCAKDHMSWLPRGQGTQVTVSS | – | – | Kd [5]: 14.5 nM |
| AS25117_HCAb (antibody, V domains shown) VH: EVQLAESGGGSVQAGGSLRLSCVISGTSISPDCMGWFRQAPGKKREAVMSIFTNTGSTRYGDSVKGRFTSSQGNAKNTLYLQMDSLKLDDTATYYCAARYTGGDCFNLEPLAWRFWGQGTQVTVSS | 2.06 | 3.22 | – |
| AS25071_HCAb (antibody, V domains shown) VH: EVQLAESGGGSVQSGGSLRLSCAVSGSGYSYSRGCFAWFQQRPGKEREGVAIINSDGHTAYSDSVQGRFIISQDKAKNTLYLQMNSLKPDDTAMYYCAYDRSQCYVLRDRLRLPDTFTDWGQGTQVTVSS | 2.41 | 4.74 | – |
| AS25064_HCAb (antibody, V domains shown) VH: QVQLVESGGGSVQAGGSLRLTCAATGYSWRPDCMGWYRQAAEKEREGVAVIDADGITSYADAAKGRFTISRDNNKITLYLQMLKPDDTGMYVCVVGWRVSSGGNCQFNDYWGQGTQVTVSS | 2.91 | 5.46 | – |
| AS25119_HCAb (antibody, V domains shown) VH: QVQLVESGGGSVQAGGPLRLTCAATGYSWRPDCMGWYRQAAEKEREGVAVIDADGITSYADAAKGRFTISRDNNNITLYLQMLKPDDTGMYVCVIGWRVSSGGNCQFNDYWGQGTQVTVSS | 1.57 | 3.29 | – |
| AS06962 sdAb (VHH) VHH: QVHLVDSGGGLVQPGGSLRLSCAASGSITSRNTMGWYRQVPGKQRELVALIATFVTHYADSVKGRFTISRDNARKMVFLEMNSLQPEDTGAYYCYVDVSPYWGRGTQVTVSS | – | – | IC50 [3]: 193 nM; EC50 [4]: 79.2 nM; Kd [5]: 0.454 nM |
| AS25115_HCAb (antibody, V domains shown) VH: QVHLVESGGASVQAGGSLRLSCAATAYTASNYCMGWFRQSPGKEREAVASINDDGVTSYADSVKGRFTISQDSAKKTLYLQMNRLKPEDTAMYYCAATPDGYCYAERLSRWRYEFWGQGTQVTVSS | 2.15 | 4.06 | – |
| AS24984_HCAb (antibody, V domains shown) VH: QVHLMESGGGSVPSGGSLRLSCAVSGSGYSYSRGCFAWFQQRPGKEREGVAIINMDGHTRYSDSVQGRFIISQDKAKNTLHLQMNTLRPDDTAMYYCAYDRSQCYVLSDRLRLPGTFSDWGQGTQVTVSS | 4.59 | 7.22 | – |
| AS15899 sdAb (VHH) VHH: QVQLVESGGGSVQAGGSLRLSCAASGYTAGSLCMGWFRQAPGKEREGVAAIYTGGGSTYYADSVKGRFTISQDNAKNTVYLQMNSLKPEDTAQYYCGAGSREDYCDRGYIYDHWGQGTQVTVSS | – | – | Kd [5]: 3.22 nM |

The next lines start with results.

| IC50 [1] [nM] | EC50 [2] [nM] | Binder | also measured |
| --- | --- | --- | --- |
| 1.34 | 3.84 | AS25396_HCAb (antibody, V domains shown) VH: QVHLMESGGGSVQAGGSLRLSCVVSGISISPDCMGWFRQAPGKKREAVATIFTNTRRTRYGDSVKGRVTSSQGNAKNTLYLKMDNLRHDDTATYYCAARYTGGDCFNLDPLSWRFWGQGTQVTVSS | – |
| 1.66 | 4.59 | AS25222_HCAb (antibody, V domains shown) VH: QIQLVESGGGSVQAGGSLRLSCAVTGISISPDCMGWFRQAPGKKREAVATIFTNTASTRYGDSVKGRFTSSQGNGKNTLYLQMDSLNVDDTATYYCAARYTGGNCFNLEPLAWHFWGQGTQVTVSS | – |
| 2.44 | 4.04 | AS25457_HCAb (antibody, V domains shown) VH: QVQLVESGGGSVQAGGSLRLSCAVSGISISPDCMGWFRQAPGKKREAVATIFTNTRSTRYGDSVKGRFTSSQGNAKNTLYLQMDSLKLDDTATYYCAARYTGGDCFNLEPVAWRFWGQGTQVTVSS | – |
| 6.04 | 9.18 | AS25156_HCAb (antibody, V domains shown) VH: EVQLVESGGGSVQSGGSLRLSCAVSGSGYSYSRGCFAWFQQRPGKEREGVAIINSDGHTRYSDSVQGRFIISQDKAKNTLYLQMNSLKPDDTAMYYCAYDCSQCYVLRDRLRLPDTFTDWGQGTQVTVSS | EC50 [6]: 9.18 nM |
| 3.25 | 6.15 | AS25164_HCAb (antibody, V domains shown) VH: EVQLVESGGGSVQSGGSLRLSCAVSGSGYSYNRGCFAWFQQRPGKEREGVAIINSDGHTTYGDSVQGRFIISQDKAKNTLDLQMNSLKPDDTAMYYCAYDRNQCYVLRDRLRLPDTFTDWGQGTQVTVSS | – |
| 8 | 10.7 | AS25149_HCAb (antibody, V domains shown) VH: QVQLVESGGGSVQSGGSLKLSCAVSGSGYSYSRGCFAWFQQRPGKEREGVAIINSDGHTRYSDSVQGRFIISQDKAKNTLYLQMNSLKPDDAAMYYCAYDRNQCYVLLDRLRLPGTFSDWGQGTQVTVSS | – |
| 2.7 | 4.91 | AS25435_HCAb (antibody, V domains shown) VH: QVQLVESGGGSVQAGGSLRLSCAATAYTASFYCMGWFRQAPGKEREAVASINDDGVTMYADSVKGQFTISQDSATKTLYLQMNRLKPEDTAMYYCAATPEGYCYAERLSTWRYTFWGQGTQVTVSS | – |
